In patent US20170002074A1 (Genentech, published 2017):
Positions count from the first letter of the chain named.

B1: 15G15 (antibody, V domains shown)
VH: QVQLVQSGAEVKKPGSSVKVSCKASGGIFSNHAISWVRQAPGQGLEWMGGIIPIFGTANYAQKFQGRVTITADESTSTAFMELSSLRSEDTAVYYCAREWADVFDIWGQGTMVTVSS
VL: not shown
B2: 7A1 (antibody, V domains shown)
VH: B1 VH with I28T, S30T, N31S, H32Y, I34V, N59D, F80Y, W100L
VL: not shown
B3: 9C2 (antibody, V domains shown)
VH: QVQLVQSGAEVKKPGSSVKVSCKASGDTFSSYSISWVRQAPGQGLEWMGEIIPIFGTADYAQKFQGRVTITADISTTTAYMELSSLRSEDTAVYYCARTWADAFDIWGQGTMVTVSS
VL: not shown
B4: 10D3 (antibody, V domains shown)
VH: EVQLVESGAEVKKPGSSVKVSCKASGGTLISHAISWVRQVPGQGLEWMGGIIPIFGSANYAQKFQGRVTITADDSTNTAYLELSSLRSEDTAVYYCARELLDVFDIWGQGTMVTVSS
VL: not shown
B5: 9C3 (antibody, V domains shown)
VH: EVQLVESGGALIQPGGSLRLSCVASGFTISGNYMSWVRQAPGKGLEWVSLIYSGDSTYYADSVKGRFNISRDISKNTVYLQMNSLRVEDTAVYYCVRDGYYVSDMVVWGKGTTVTVSS
VL: DIQMTQSPSSLSASVGDRVTITCRASQGIRNDLGWYQQKPGKAPKRLIYAASSLQSGVPSRFSGSGSGTEFTLTISSLQPEDFATYYCLQHNSYPWTFGQGTKLEIK
modifications: atypical N-linked glycosylation site in the heavy chain between CDR2 and CDR3 at position 69 (kabat #)
B6: 33H4 (antibody, V domains shown)
VH: EVQLQQSGAELVKPGASVKMSCKAFGYTFTTFPIEWMKQSHGKSLEWIGNFHPYNDQTKYNEEFKGRAKLTIDRSSSTVYLELGRLTSDDSAVYYCARGYYYAFDFWGQGTTLTVSS
VL: DIQMTQSPASLTVSLGQRATISCRASESVDSYGNSYLHWYQQKPGQPPQLLIYLASNLESGVPARFSGSGSRTDFTLTIDPVEADDAATYYCQQNNEDPWTFGGGTKVEIK
B7: 15G15.83 (antibody, V domains shown)
VH: B1 VH
VL: EIVLTQSPLSLPVTPGEPASISCRSSQSLLHSNGYNYLDWYLQKPGQSPQLLIYLGAYTVSGVPDRFSGSGSGTDFTLKISRVEAEDVGVYYCMQALQTPWTFGQGTKVEIK
notes: Variant of 15G15
B8: 15G15.88 (antibody, V domains shown)
VH: B1 VH
VL: B7 VL with A57N, T59R
notes: Variant of 15G15
B9: 15G15.33 (antibody, V domains shown)
VH: B1 VH
VL: B7 VL with A57V, Y58N, T59S
notes: Variant of 15G15
B10: 27C6 (antibody, V domains shown)
VH: EVQLQQSGPELVKPGASVKVSCKASGYAFTSYNMYWVKQSHGKSLEWIGYIDPYNGGTRHNQKFKDKATLTVDKSSSTAYMHLNSLTSEDSAVYYCASQNYEYFDYWGQGTTLTVSS
VL: DIVLTQSPKFMSTSVGDRVSITCKASQDVGDAVAWYQQKPGQSPKLLFYWTSTRHTGVPDRFTGSGSGTEFTLTIRNVQSEDLADYFCQQYRSTPLTFGSGTKVEIK
B11: 33F9 (antibody, V domains shown)
VH: EVQLQQSGPELVKPGASVKMSCKASGYTFTSYVMHWMKQKPGQGLEWIGYINPYNDGTKYNDKFKGKATLTSDKSSSTAYMELSSLTSEDSAVYYCARGSNYEDFAMDYRGQGTSVTVSS
VL: DIVMTQSPASQSASLGESVTITCLASQTIGTWLAWYQQKPGKSPQLLIYAATTLADGVPSRFSGSGSGTKFSFKISSLQAEDFVSYYCQQLYSTPLTFGGGTKVEIK
B12: 23E4 (antibody, V domains shown)
VH: EVQLQQSGAELVRPGASVKLSCKASGYTFTNYWMNWVKQRPGQGLEWIGMIDPSDNETHYSQMFKDKATLTVDKSSSTAYMQLISLTSEDSAVYYCAGYYGNFGWFVYWGQGTLVTVSA
VL: DIFMTQTPLSLPVSLGDPASISCRSSQTIVHSNGNTYLEWYLQKPGQSPKLLIYKVSNRFSGVPDRFSGSGSGTDFTLKISRVEAEDLGVYYCFQGSHVPPTFGGGTKVEIK
B13: 9C3.3 (antibody, V domains shown)
VH: B5 VH with N68S
VL: B5 VL
notes: Variant of 9C3 with the heavy chain N-glycosylation site removed
B14: 9C3.4 (antibody, V domains shown)
VH: B5 VH with N68A
VL: B5 VL
notes: as for B13
B15: 9C3.2 (antibody, V domains shown)
VH: B5 VH with N68T
VL: B5 VL
notes: as for B13

biological target: T1, huCD33 R69G variant (human, UniProt P20138 18-364); assay: FACS, direct Dylight 488 conjugate, on 293AD cells labelled 'SNPG69R', taken as the SNP variant of paragraph 650
T1 construct: also called G69 CD33; SNP R69G (r2455069)

Geom. Mean:FL1-H	Binder
123	B1
125	B2
71.7	B3
103	B4

biological target: T2, Human CD33 (human, UniProt P20138 18-364); assay: Scatchard analysis, [125I]-labeled antibody competed by unlabeled antibody, HEK293AD cells stably expressing human CD33
T2 construct: One molecule is used for recombinant CD33 on HEK293AD/293 cells and for endogenous human CD33 on tumor or myeloid cells; the cell is named under assay; also called huCD33; hu CD33

Kd [pM]	Binder
800	B5
2400	B6
500	B7
700	B8
700	B9
13400	B10
6500	B3
8700	B11
3300	B4

biological target: T3, Cynomolgus monkey CD33 (cynomolgus monkey); assay: FACS, HEK293AD cells stably expressing cynomolgus CD33
T3 construct: Used for recombinant CD33 on HEK293AD cells and endogenous CD33 on cynomolgus CD14+/CD33+ myeloid cells; also called cynoCD33; cyno CD33

binding result	Binder
no binding (tested: 1 mg/ml)	B12

biological target: T4, Construct-88B: CD33 Ig-like V (M17-V136 including spacer H137-H143) linked to an irrelevant Ig-like C … (human); assay: FACS on 293 cells transiently transfected with construct 88B, Dylight-650 labelled antibody at 1-10 µg/ml
T4 construct: also called Ig-like V domain of huCD33

Geom. Mean:FL4-H	Binder
772	B2
366	B3
684	B4

biological target: T3, Cynomolgus monkey CD33; assay: Scatchard analysis, HEK293AD cells stably expressing cynomolgus CD33; Scatchard analysis on 293-cynCD33 cells

binding result	Binder
no binding	B6

biological target: T3, Cynomolgus monkey CD33; assay: Scatchard analysis, [125I]-labeled antibody competed by unlabeled antibody, HEK293AD cells stably expressing cynomolgus CD33

Kd [pM]	Binder
600	B5
200	B7
200	B8
540	B2
300	B9
4500	B10
700	B3
920	B11
700	B4

biological target: T2, Human CD33; assay: Scatchard analysis, [125I]-labeled antibody competed by unlabeled antibody, Molm-13 cells (endogenous CD33)

Kd [pM]	Binder
5800	B5
2200	B13
2700	B14
2000	B15
600	B6
500	B7
800	B8
900	B9
23000	B10
10300	B3
~9200	B11
2600	B4

biological target: T1, huCD33 R69G variant; assay: FACS, direct Dylight 488 conjugate, on 293AD cells labelled 'SNPG69R', taken as the SNP variant of paragraph 650; remark: another data set of the same source

Geom. Mean:FL1-H	Binder
78.7	B6
32.3	B10
85.2	B11
50.1	B12

biological target: T2, Human CD33; assay: FACS titration on EOL-1 cells (endogenous huCD33), geometric mean fluorescence, 0.1-10 µg/ml antibody

EC50 [µg/mL]	Binder
0.54	B5
0.42	B13
0.23	B14
0.46	B15

biological target: T5, Construct-88: irrelevant Ig-like V linked to a CD33 Ig-like C (R144-Q228 including TM/CD L229) (human); assay: FACS on 293 cells transiently transfected with construct 88, Dylight-650 labelled antibody at 1-10 µg/ml
T5 construct: N-terminal or cytoplasmic tags were attached

Geom. Mean:FL4-H	Binder
13	B2
11.2	B3
12.1	B4

biological target: T4, Construct-88B: CD33 Ig-like V (M17-V136 …); assay: FACS, Dylight-650 labeled antibody (1-10 ug/ml) on 293 cells transiently transfected with construct 88B

fold binding over isotype control [fold]	Binder
≥ 100	B3
≥ 100	B4
